In the experiment the target is T1, Upf1-FL produced in E. coli (Upf1-FLc; amino acids 1–1118) (human, UniProt Q92900-2 1-1118).
T1 sequence (looked up): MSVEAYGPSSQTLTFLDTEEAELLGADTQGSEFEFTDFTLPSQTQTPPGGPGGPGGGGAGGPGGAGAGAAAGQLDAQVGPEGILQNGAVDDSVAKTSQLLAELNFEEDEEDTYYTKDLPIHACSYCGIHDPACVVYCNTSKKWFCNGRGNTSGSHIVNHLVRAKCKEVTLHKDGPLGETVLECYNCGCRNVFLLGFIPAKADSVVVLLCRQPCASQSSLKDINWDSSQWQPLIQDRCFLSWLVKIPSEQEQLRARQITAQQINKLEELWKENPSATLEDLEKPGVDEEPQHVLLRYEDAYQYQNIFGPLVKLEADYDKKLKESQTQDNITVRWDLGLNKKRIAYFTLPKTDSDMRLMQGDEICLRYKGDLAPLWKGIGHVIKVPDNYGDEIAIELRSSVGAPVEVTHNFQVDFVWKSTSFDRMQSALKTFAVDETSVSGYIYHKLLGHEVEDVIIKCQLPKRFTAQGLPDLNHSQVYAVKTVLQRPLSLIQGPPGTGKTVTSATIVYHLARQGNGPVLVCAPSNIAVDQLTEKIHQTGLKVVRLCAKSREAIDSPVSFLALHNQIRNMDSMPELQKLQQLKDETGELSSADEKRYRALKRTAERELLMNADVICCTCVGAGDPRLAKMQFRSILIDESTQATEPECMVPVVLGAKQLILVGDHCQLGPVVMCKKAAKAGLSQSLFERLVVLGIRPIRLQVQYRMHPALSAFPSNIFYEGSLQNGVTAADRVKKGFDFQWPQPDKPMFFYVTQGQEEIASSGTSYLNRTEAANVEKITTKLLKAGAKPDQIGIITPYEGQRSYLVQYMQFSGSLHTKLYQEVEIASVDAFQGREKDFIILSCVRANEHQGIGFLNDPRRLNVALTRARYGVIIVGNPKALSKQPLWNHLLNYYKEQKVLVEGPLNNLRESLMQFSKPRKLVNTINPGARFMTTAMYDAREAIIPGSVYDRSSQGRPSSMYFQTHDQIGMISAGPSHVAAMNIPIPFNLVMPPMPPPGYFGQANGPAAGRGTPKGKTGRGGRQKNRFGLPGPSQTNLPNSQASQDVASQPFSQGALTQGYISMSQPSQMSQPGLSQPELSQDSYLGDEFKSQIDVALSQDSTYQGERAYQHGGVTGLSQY
Briefly: pull-down.

B1: CBP-tagged Upf2 (761–1227) (domain or fragment, UniProt Q9HAU5 761-1227, looked up)
chain: EKTVKKKRPPLQEYVRKLLYKDLSKVTTEKVLRQMRKLPWQDQEVKDYVICCMINIWNVKYNSIHCVANLLAGLVLYQEDVGIHVVDGVLEDIRLGMEVNQPKFNQRRISSAKFLGELYNYRMVESAVIFRTLYSFTSFGVNPDGSPSSLDPPEHLFRIRLVCTILDTCGQYFDRGSSKRKLDCFLVYFQRYVWWKKSLEVWTKDHPFPIDIDYMISDTLELLRPKIKLCNSLEESIRQVQDLEREFLIKLGLVNDKDSKDSMTEGENLEEDEEEEEGGAETEEQSGNESEVNEPEEEEGSDNDDDEGEEEEEENTDYLTDSNKENETDEENTEVMIKGGGLKHVPCVEDEDFIQALDKMMLENLQQRSGESVKVHQLDVAIPLHLKSQLRKGPPLGGGEGEAESADTMPFVMLTRKGNKQQFKILNVPMSSQLAANHWNQQQAEQEERMRMKKLTLDINERQEQED
Take B1: the binding result is “binds”.

The record behind these values is PMC3575847 (Nucleic Acids Research, 2012).
